Key:
[1] = tested on: U2AF1alpha;U2AF2beta (Fritillaria borealis;Fritillaria borealis); assay: EMSA; settings: 330 nM U2AF; never exceeded 5% bound; EMSA: 20 mM Hepes, 0.1 M NaCl, 5% glycerol, 0.5% Tween-20, pH 7.8, 50 ng/ul BSA, 0.5 mM TCEP, 0.5 mM EDTA; 1 h on ice; 6% PAGE 0.5x TBE at 4 C
[2] = tested on: U2AF1beta;U2AF2beta (Fritillaria borealis;Fritillaria borealis); assay: EMSA; settings: 330 nM U2AF; never exceeded 5% bound; EMSA: 20 mM Hepes, 0.1 M NaCl, 5% glycerol, 0.5% Tween-20, pH 7.8, 50 ng/ul BSA, 0.5 mM TCEP, 0.5 mM EDTA; 1 h on ice; 6% PAGE 0.5x TBE at 4 C

Sequence | binding signal [1] [% bound] | binding signal [2] [% bound]
GGGUCGCUUCUCCCCCCCCCUAGGCGUCU [ORN.PyC] | < 5 | < 5
GGGCUGUCCUCUUUUUUUUUUCAGGCGUCU [ORN.PyU] | < 5 | < 5
